The nature of the data set: soluble fraction after stress (log2 fold change); higher = more stays soluble; pooled small domains, quantitative proteomics. The settings on record: stress: 75 degC.
With “HMIALKNLREEKRMTQAELSKDLEISPSAIGMYEQGRRVPDVSTLKKISAYFNVSIDYLLGNSTSKDI”, the “soluble fraction (log2)” value is -0.626. With “HMIALLRLGTAPDIKAQAPLATILARHNGEMSAKDLWQRFGGEIDTFYAQLKTEVAHGWILEPT” the figure was -2.34; with “HMIAVLKQGVSKQQVENLITWFRSRGLDVHISEGKFQTIIGLIGDTSKVDIDLLNGLEIIESVKRI”, -0.344. On to “HMIAVSQEQIKQIIVDDPSFHDANGKFSQALLTQYLNQRRMSEDQFVEEIRDQFLFQNLQNLVQNG”, for which the “soluble fraction (log2)” value came to 0.278. “HMIDAAHLEKAILSLPEGARAVFVLIETEGFAHREVAELLGISEGTSKSQLNYAKKRLREILV”: the “soluble fraction (log2)” value is -0.266. As to “HMIDAKTTLQELTQKSGKKPEYRLIKIEGPDHLRRFTVEVFIDGQSMGTGTGHSKKEAEQNAANFALKNLQ”, the “soluble fraction (log2)” value was -0.00455. As for “HMIDEQDLKKYILISTSVEELTDYLGATDRMLYDYLYSLKHVGQYWQLNERFLLDLYKLPNLVIVDKEDLE”, the “soluble fraction (log2)” value is -0.172. Regarding “HMIDFDEQGNLWVHEMGPRHGDELNLIEKARNYGYPTVSQGDHYSGVKISNHEDIPIFKSPEKAWVPAISP”, the “soluble fraction (log2)” value is -0.228.

In the case of “HMIDFDHADIERLWNSIIHYVPERQKLDFAIDFIKSLEDIGVEHDVLRGSAELDPKLEEAVNTVFE”, the “soluble fraction (log2)” value is -0.725. Consider “HMIDIIEYIISEESKGLRADQGIALQNPQYSRSLIQKWIKKGSVLVNNKIIRTKEILLEGDKISITPEENI”, for which the “soluble fraction (log2)” value was -0.546. With “HMIDKIRYPELIMKLAHQQGGTIKRRDVEQLLHLQTKQAYRELSKLVDAGELVSVGRGPGAHYEVS”, the “soluble fraction (log2)” value is -0.316. On to “HMIDQNEDLLSGYIDEVLSQNPDKVNEYLKGKSGLIGFFMGQIKQKSATALDAALLKSQLETALEKLRIK”, for which the “soluble fraction (log2)” value was -0.14. For “HMIDQSVVVQYLSKLTNTPYLKTREITMGEPYMQFERGEIKFQEYVEDIRALLPGGDRIDADRLRDIWMNS”, the “soluble fraction (log2)” value was -1.1. To “HMIDRADLWEALRKLPEDTLKLFSLHFEKGMTHDEISKHTDIPVGTVKTKLRRGLIEARKLAREF” belongs -1.28. As to “HMIDTPQELARLLRLLDEQNFEAEILFHKLRPDLLHLWSKEHVTRIAEALDAFDYQMALTLLNASP”, the “soluble fraction (log2)” value is -2.43. Regarding “HMIDVNLVQRGKTLHLRRRVPMRYSSVERREYVSISLKTDSEAEARRKAGAAWDQMIAAWEARLA”, the “soluble fraction (log2)” value is -0.382. For the sequence “HMIDYTDTSAVKDSAAVAGRVREMINEGVPIADVNAFIRSASENGLISDDSARRLRYMNDSR”, the “soluble fraction (log2)” value was -0.0436.

On to “HMIEDMTINIEERLSLNGDIKKSEYILQYIKPDFIRKVILSPELNKGEIYIYDSKKKVMYLPLFDQVSEEI”, for which the “soluble fraction (log2)” value is -0.355. With “HMIEINNLEDLKLMKEFILKNGKYGFGVFVGGKYIGLSDIGSVNSFKDTLGLPVVSLGNDDFKRFTEAH” the figure was -1.07.

For the sequence “HMIEQEQAFLEQVLKKYSQEELVLTVGSRTLVKYSAGQLERLLEHYPHVRLASSPVNGEAGFLLSRG”, the “soluble fraction (log2)” value was -0.0614. On to “HMIEQIELEARVPDELGGQRLDQVAAQMFDDFSRSRLTGWIRDGSLTADGQQLRPRDIVYGGTLLQLKAEQ”, for which the “soluble fraction (log2)” value worked out at 0.132. For “HMIESFQNGLVEHDQFTRPNPWVTPNFSKIEVPSILLSGKHADIDLWKHQNSIENTKKNRPDLFKNYLKKN”, the “soluble fraction (log2)” value was -0.149. “HMIEYILDYLANRGVYAASQGEQQQMEDGIARYLQENGLEDGNTGAYYQKYVSNHLQQISASDLKAYFLN”: the “soluble fraction (log2)” value was -0.946. For the sequence “HMIEYYDDEELDVFKGRQSDNYTNKEIEQFAEVLHTMRQDEVKGWNRSLILRSINLPDSLKDEVIMLI”, the “soluble fraction (log2)” value is -0.568.

For the sequence “HMIFDPTTLPEKQLLVYGIISSHPGLNAKQISEMLTLKKSSIETAIKGLRKKEIIEYEGTTRNGG”, the “soluble fraction (log2)” value is -0.267. For “HMIFEEDILKEFRGSLIFITHDRRFLDNIATRIIELDRGKLLSFPGNFSAYKKAKNEQLANEAVENA”, the “soluble fraction (log2)” value was -0.439. Take “HMIFEETVFKDIAFGPKNMGLSEAEIKRRVYETAENIGLSQELMERSPFELSGGQKRRVAIAGVMAMEP”: the “soluble fraction (log2)” value came to 0.268.

Turning to “HMIFELDSDRASAGNTIGKLVSKWNNTEVASVQFVSGDDTSNKDNASIYLNTRSGGSGNLVRLRITK”, the “soluble fraction (log2)” value amounted to 0.429. As for “HMIFRPALITDLDAVERHYTELLTREAETGRSSTNWSLGVYPTRQTATAAQAAGTLWVLEREGQVVASVI”, the “soluble fraction (log2)” value was -0.0961.

As to “HMIFTPNGDRVNDVFEIEMGVKLEFQIIILNQQNQTVFKSADPDFKWDGTMLNGEPAPSGTYLYYFSAKD”, the “soluble fraction (log2)” value was 0.207. “HMIGERIKRARAAAGLSMQALGKQVGISANMVKKYEHDQSMPSSGVLLKLATALSVRTEYFFRPA”: the “soluble fraction (log2)” value is -1.38. As for “HMIGGASVFKQFLPLADKMLLTLIHSEFEGDTYFPVFSEKEWLLQESSSLLSATGYQLSFQTYIR”, the “soluble fraction (log2)” value amounted to 0.0107.

As for “HMIGGEDEILKVVLEVLEEKPEAIEQYKNGRTNIVDFLVGQVMKKTRGQANPATTREFMIREIEK”, the “soluble fraction (log2)” value was -0.522.

“HMIGKDLLGYEVFSESGDLVGILKDVMWLPHSDVYVITNGGKELLIPVIPEVVKGINHEQGVIVISPM”: the “soluble fraction (log2)” value was 0.394. To “HMIGPYAAAKLMTNKDFVKWLSGGVEKSVFNPNSFGQHIRRLVQISEVNPDIRDEINAVVQGLTQ” belongs -0.445. “HMIGRIKGQLIEKKSDSVVIDVHGIGYVVYVTEKTARSLTLGDQSRDISLYSELLVKEDLLQLVGFI”: the “soluble fraction (log2)” value was -0.075. Take “HMIGRRLKVARASAGLSLRELAARMDGVVTPQAIGKYERNEDMPGSRALMALASALGVSEGYLLSD”: the “soluble fraction (log2)” value is -1.38. Take “HMIHDSAESVVFPFGKYKGYTLAHVIREHPHYTYWIRDNADFSPLWREAVSLALQNRDIGHLNLPHVK”: the “soluble fraction (log2)” value was -0.222. With “HMIHMNMGQKINQLRLQKGFTLEELGNLVGVGKSTVRKWENGMIANMKRDKILLVAEALDTSPAYLMGWD”, the “soluble fraction (log2)” value was -2.12.

As for “HMIIENIVVEIKGEVYNPGLYILEQGSRINDLIELSGGFTKDANGTDLNLAKVLSDGEVIIVSKKG”, the “soluble fraction (log2)” value is -1.29. To “HMIIIMKPNASEEAVRKVTHIIESKGLQVHLSKGSQVTIVGVVGDKTRLQGSNIEISEGVDKVVAVT” belongs -1.22; to “HMIILDASASRAIGNGTIEETKWDFGNGESSTNRGGPIVERQIYANQAAYILKLSMKTNDGQLFTKEIQLL”, 0.162; to “HMIINKFERRKEIQIQFNNQERIKFKDFFLNLSKENIIVSFLILLELVRESLIDFSGTNENDIEFFIK”, -2.38. Take “HMIITTPYKVTASAINIRSGRGTSYSIIGTVSKGQTVDVYNNSLSKGWVKVKFSGSVGYAYAKYLEK”: the “soluble fraction (log2)” value is -1.62. “HMIIVMSANANAREISEVIARIRAMGYDVHLSHGKERTIIGVIGRGTPIDREQLSLMSGVQQVMPV”: the “soluble fraction (log2)” value is -2.44.

Take “HMIKIEDILNVESVELSDSEYKKFLNGILINVKNLENGWAKVYSGNEFKGFGIVDKNLLKRKIVID”: the “soluble fraction (log2)” value is -1.49. In the case of “HMIKIEDYTNKDYNKVEASLEVKGLVVNIEYKAVDDKAKYKGKEDLIIDQSVKKDATLVKGDTIILYLPK”, the “soluble fraction (log2)” value was -1.21. With “HMIKISDYLSEEDLNFIKEMEKIYPYFDFDSEGNLILTKSIDELKDKYGFDEAFVSRLDTVLNSR” the figure was 0.108. As for “HMIKITLGWVISVRRHDLGYTQHKMARAVGISDLTVSRIESDDGITPDNNTLRKIAEYLKIDYNSLLTLK”, the “soluble fraction (log2)” value is -1.37. Take “HMIKLIKKDTNISELKMSKMPWDVMLYGKPYQVVSIKGYVHTIGGRRGENDLWMYPRDESPTYENLIEFQ”: the “soluble fraction (log2)” value was -2.19. “HMIKNKDRIQYTLAHRKAFRKIEKELLGYNTFRSLFHDLDKVFLYPFFDYKKVHNFHRNHAHH”: the “soluble fraction (log2)” value is 0.132.

For the sequence “HMIKRETNDNPVDPASLSLGDRVKILTLNQNGEIISLPDEKGLLQVQVGIMKIGVNVSDIMLI”, the “soluble fraction (log2)” value is -0.9. For the sequence “HMIKRITDEQHPVDVDRLLVVTFTNAAASEMRERIGDAIEAALEKDPYNQHLQRQLTLVHNAQITTIDS”, the “soluble fraction (log2)” value came out at 0.171. “HMIKSEERIQNIKEYILEFQFTYHRTPTMAQIAEAVGTVKSNVYKYLSEMEERGILTRNKREIEINDTIQ”: the “soluble fraction (log2)” value is -0.807.

For the sequence “HMIKSMTGYGSAKGTVEGIEVSVELKSVNNKFLDTSIRLPRSFLFAEETIKQAVSSHISRGKVDVFVSVDS”, the “soluble fraction (log2)” value was 0.587.

Consider “HMIKYTIEELGELTGFTRRTIRYYVQEGLIDPPAGRGRGGFYYDSHVQQLLRIKSFQEKGIGITAMVSLM”, for which the “soluble fraction (log2)” value is -2.32.

As to “HMILEEIIGKNIARYREAAGLTQATLAEKIGISTAFVSRVERGQKKMKVETLYATAKVLNVSVDALLS”, the “soluble fraction (log2)” value is -2.61.

As for “HMILKNVPSNLVNQRLDKVATVLFQTYSRTQIKKWILEGRLLVNGEISNPKDLVNENDEIEINPI”, the “soluble fraction (log2)” value is -2.95. “HMILKQTHIVQELTGPIRLQEYGVGIFQQISTKSALKKALKKNQITVDGVVGSTATFIKGGEIIIYHVTE”: the “soluble fraction (log2)” value was -2.67. As to “HMILNDRSELLDVVKRVIAANPASVADYRKGKKKVLGFLVGQAMKETKGQADPRILNELFLQELGEN”, the “soluble fraction (log2)” value turned out to be 0.108.

Regarding “HMILNNAKINTELNSLAEFTQRSLDSNTSEIGFYDYKKISYIASFATMKTTNWNVIIRAPINEFMGTVN”, the “soluble fraction (log2)” value is 0.126.

For “HMILQTLSERVTETLRDWILHGHFKPGDKIEEVPIAERMGVSRTPVRAAFATLTNEGLIDHQPNRGYQVRV”, the “soluble fraction (log2)” value is -0.496. With “HMILSTNFFRHIVPKEYQTSYGTMKKWLTDHNVIGTNSIPQGIGYRIPTQGLSSTFSFKVVDVLPDR” the figure was -0.986; with “HMIMDQTILRKQRELTDRLNRYRNEYYNHNKPSVSDEVYDRLFDELQSLEKETGVQMANSPTTTVG”, -0.0853. With “HMIMGTITKRTNPSGAIVYRAQIRIKKAGYPDFSESRTFSKKAMAVEWLKLREAELEMHPELLFR” the figure was -2.35; with “HMIMHLNQIIRNKRLAAGLTQEALAQKVGVTAPAVSKWEKGISYPDITLLPILARNLNTDVNTLLDFSA”, -1.29. With “HMIMNLNVLANNVRRLRTAQRLSQSALASKAGLSVPAIKNLENARNEPRVNTVQVIAHALEVRLQDLFAPT”, the “soluble fraction (log2)” value was -1.81.

Regarding “HMIMTEKEKKLLNRYIMHDTIHKLYHEQNKSMRWIADNLGINFRTVQKYLDMDSGEFQKYSESISNR”, the “soluble fraction (log2)” value was -0.97. With “HMIMTIYEYIARNNPTGAKRVIESFGYVVTQPKKMGDNLRMLVAQEGEPALKAVVDLHPDKDLILEV” the figure was -2.69.
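Further: 20 min heating vs room temperature control held 20 min.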
